Sequences and labels used below:
B1: Pr70 (dsDNA)
DNA 1: TTATTTACCCCCTATTGTTTTATTAGGCTAAGTTGATGATTTATTTAACCTATGCTATAATTTTATCACTATGGTACTATATTACAATAATGCACTTTTT
DNA 2: AAAAAGTGCATTATTGTAATATAGTACCATAGTGATAAAATTATAGCATAGGTTAAATAAATCATCAACTTAGCCTAATAAAACAATAGGGGGTAAATAA
B2: Pr106 (dsDNA)
DNA 1: AAAATTTATCATTATATAAGTAACATAC
DNA 2: GTATGTTACTTATATAATGATAAATTTT
B3: Pr41 (dsDNA)
DNA 1: TACTATACATTATAGAGTAGTA
DNA 2: TACTACTCTATAATGTATAGTA
B4: Pr54 (dsDNA)
DNA 1: GTAAATATAAGTACTATACATTATAGAGTAG
DNA 2: CTACTCTATAATGTATAGTACTTATATTTAC
B5: Pr29 (dsDNA)
DNA 1: TAAACCTTGTATTATAGAGTACTATGTATTATTATAGTAAATATAAGTACTATACATTATAGAG
DNA 2: CTCTATAATGTATAGTACTTATATTTACTATAATAATACATAGTACTCTATAATACAAGGTTTA
B6: Pr32 (dsDNA)
DNA 1: TGTATTATAGAGTACTATGTATTATTATAGTAAATATAAGTACTATACATTATAGAGTAGTAGG
DNA 2: CCTACTACTCTATAATGTATAGTACTTATATTTACTATAATAATACATAGTACTCTATAATACA
B7: Pr30 (dsDNA)
DNA 1: TATAGTAAATATAAGTACTATACATTATAGAGTAGTAGGTGAAAAGGCGGTGGTACATAATGCAGTTA
DNA 2: TAACTGCATTATGTACCACCGCCTTTTCACCTACTACTCTATAATGTATAGTACTTATATTTACTATA
B8: Pr121 (dsDNA)
DNA 1: AAGCTACCTTGCATAAATATCTTGGATAGTATATTGATTATATAATCAGTAAATGTTATACTTTTCATGACGATAAAAACATTTTAGTCATAAGGGGGTT
DNA 2: AACCCCCTTATGACTAAAATGTTTTTATCGTCATGAAAAGTATAACATTTACTGATTATATAATCAATATACTATCCAAGATATTTATGCAAGGTAGCTT
B9: Pr33 (dsDNA)
DNA 1: GAGTACTATGTATTATTATAGTAAATATAAGTACTATACATTATAGAGTAGTAG
DNA 2: CTACTACTCTATAATGTATAGTACTTATATTTACTATAATAATACATAGTACTC
B10: Pr34 (dsDNA)
DNA 1: TTTGATGAAAAAAATGTTACAATATTTAATATTGAAAATGGCGATGTTATTAGCATAGAGAATGGAGGAAATTAAATGAAACAAGAATACGGTGCAAGTC
DNA 2: GACTTGCACCGTATTCTTGTTTCATTTAATTTCCTCCATTCTCTATGCTAATAACATCGCCATTTTCAATATTAAATATTGTAACATTTTTTTCATCAAA
B11: Pr122 (dsDNA)
DNA 1: TAGAGTACTATGTATTATTATAGTAAATAT
DNA 2: ATATTTACTATAATAATACATAGTACTCTA
B12: Pr88 (dsDNA)
DNA 1: GTACTATGTATTATTATAGTAA
DNA 2: TTACTATAATAATACATAGTAC
B13: Pr103 (dsDNA)
DNA 1: TATATAAGTAACATACCCAATTTTGAGGTGAATGAAACAAAAGATGTCAT
DNA 2: ATGACATCTTTTGTTTCATTCACCTCAAAATTGGGTATGTTACTTATATA
B14: Pr102 (dsDNA)
DNA 1: TTTTAACCCTCCTAAAATTTATCATTATATAAGTAACATACCCAATTTTG
DNA 2: CAAAATTGGGTATGTTACTTATATAATGATAAATTTTAGGAGGGTTAAAA
B15: Pr53 (dsDNA)
DNA 1: AATATAAGTACTATACATTATAGAG
DNA 2: CTCTATAATGTATAGTACTTATATT
B16: Pr97 (dsDNA)
DNA 1: TTACTTATATAATGATAAATTTTAGGAG
DNA 2: CTCCTAAAATTTATCATTATATAAGTAA
B17: Pr27 (PcdpadR1) (dsDNA)
DNA 1: TAAACCTTGTATTATAGAGTACTATGTATTATTATAGTAAATATAAGTACTATACATTATAGAGTAGTAGGTGAAAAGGCGGTGGTACATAATGCAGTTA
DNA 2: TAACTGCATTATGTACCACCGCCTTTTCACCTACTACTCTATAATGTATAGTACTTATATTTACTATAATAATACATAGTACTCTATAATACAAGGTTTA
B18: Pr67 (dsDNA)
DNA 1: AGTACTATACATTATAGAGTAGT
DNA 2: ACTACTCTATAATGTATAGTACT
B19: Pr112 (dsDNA)
DNA 1: ATATTTTAGTTATATTTTTGATAGAAAATATTTTATCGTGTATAATACTACTTATAAATAAGAATAAAAATAAAGAGCTTGTTTGGAGGAATTTTAATAA
DNA 2: TTATTAAAATTCCTCCAAACAAGCTCTTTATTTTTATTCTTATTTATAAGTAGTATTATACACGATAAAATATTTTCTATCAAAAATATAACTAAAATAT
B20: Pr94 (dsDNA)
DNA 1: AATGAAACAAAAGATGTCATG
DNA 2: CATGACATCTTTTGTTTCATT
B21: Pr120 (dsDNA)
DNA 1: TTTTTATTCCTCCCTTTTTATTTATTAAAATTTATTATATTTTTCTATGATTCACTTAATTAAATTTCTCCATCTACAATTTTTCCATCTACAGATATAG
DNA 2: CTATATCTGTAGATGGAAAAATTGTAGATGGAGAAATTTAATTAAGTGAATCATAGAAAAATATAATAAATTTTAATAAATAAAAAGGGAGGAATAAAAA
B22: Pr105 (dsDNA)
DNA 1: AAAAGATGTCATGATAAGTCATGTAA
DNA 2: TTACATGACTTATCATGACATCTTTT
B23: Pr35 (dsDNA)
DNA 1: CATTTAAAGAATGGGATATTATGTAATTGTAGATTATGTAGGTTTAAATTATTTATTTTTGTTTTAGCAAATTCTATGAATAGAAGGGGTTTGATTATGG
DNA 2: CCATAATCAAACCCCTTCTATTCATAGAATTTGCTAAAACAAAAATAAATAATTTAAACCTACATAATCTACAATTACATAATATCCCATTCTTTAAATG
B24: Pr111 (dsDNA)
DNA 1: ATATAGGAAATATAGAACAGATTTTCCAAGAAATCTAAATATTCTATGACCACGTGAATTGCTATGCACACATGTTGATAATCCATATTTTAAATCTAAA
DNA 2: TTTAGATTTAAAATATGGATTATCAACATGTGTGCATAGCAATTCACGTGGTCATAGAATATTTAGATTTCTTGGAAAATCTGTTCTATATTTCCTATAT
B25: Pr69 (dsDNA)
DNA 1: ATGCTATAATTTTATCACTATGGTACTATATTACAATAATGCACTTTTTTGTAATATAGTATCTAAAAAGATACTTTAAAATAAATAAAGGAGCTCAAAA
DNA 2: TTTTGAGCTCCTTTATTTATTTTAAAGTATCTTTTTAGATACTATATTACAAAAAAGTGCATTATTGTAATATAGTACCATAGTGATAAAATTATAGCAT
B26: Pr104 (dsDNA)
DNA 1: AGGTGAATGAAACAAAAGATGTCATGATAAGTCATGTAAAACAATAGTTT
DNA 2: AAACTATTGTTTTACATGACTTATCATGACATCTTTTGTTTCATTCACCT
B27: Pr31 (dsDNA)
DNA 1: AATATAAGTACTATACATTATAGAGTAGTAGGTGAAAAGGCGGTGGTACATAATGCAGTTA
DNA 2: TAACTGCATTATGTACCACCGCCTTTTCACCTACTACTCTATAATGTATAGTACTTATATT
B28: Pr96 (dsDNA)
DNA 1: AAGTAACATACCCAATTTTGAGGT
DNA 2: ACCTCAAAATTGGGTATGTTACTT
B29: Pr42 (dsDNA)
DNA 1: CTATACATTATAG
DNA 2: CTATAATGTATAG
B30: Pr68 (dsDNA)
DNA 1: GTACTATACATTATAGAGTAG
DNA 2: CTACTCTATAATGTATAGTAC
B31: Pr43 (dsDNA)
DNA 1: CTATGTATTATTATAGTAAATATAAGTACTATACATTA
DNA 2: TAATGTATAGTACTTATATTTACTATAATAATACATAG
B32: Pr48 (PnorV) (dsDNA)
DNA 1: TTTTAACCCTCCTAAAATTTATCATTATATAAGTAACATACCCAATTTTGAGGTGAATGAAACAAAAGATGTCATGATAAGTCATGTAAAACAATAGTTT
DNA 2: AAACTATTGTTTTACATGACTTATCATGACATCTTTTGTTTCATTCACCTCAAAATTGGGTATGTTACTTATATAATGATAAATTTTAGGAGGGTTAAAA
B33: Pr95 (dsDNA)
DNA 1: TAAAATTTATCATTATATAAGTAA
DNA 2: TTACTTATATAATGATAAATTTTA

For this series, the target named is cdPadR1 (Clostridium difficile R20291, UniProt A0A9R0CDW8 1-109). Nature of the series: EMSA; 20 mM Tris pH 8.0, 120 mM KCl, 10 mM MgCl2, 5 mM DTT, 12.5% glycerol, 125 ug/mL heparin, room temperature. The note with it: protein: recombinant; tags: N-terminal Strep II; chain copies: 2. In general terms: In EMSA bound probe runs differently from free probe, usually more slowly.
Consider B1, for which the binding result is “binds”.

Take B2: the binding result is given as “no binding”.

In the case of B3, the binding result is on record as “binds”.

For B4, the binding result is “binds”.

Turning to B5, the binding result is listed as “binds”.

Regarding B6, the binding result is “binds”.

Regarding B7, the binding result is on record as “binds”.

As for B8, the binding result is “binds”.

On to B9, for which the binding result is given as “binds”.

Turning to B10, the binding result is “binds”.

Turning to B11, the binding result was “binds”.

Regarding B12, the binding result is “no binding”.

B13: the binding result is reported as “no binding”.

Turning to B14, the binding result is “binds”.

As to B15, the binding result is “no binding”.

For the molecule B16, the binding result is recorded as “no binding”.

In the case of B17, the binding result is given as “binds”.

For B18, the binding result is “binds”.

On to B19, for which the binding result is given as “binds”.

In the case of B20, the binding result was “no binding”.

On to B21, for which the binding result was “binds”.

On to B22, for which the binding result is reported as “no binding”.

With B23, the binding result is recorded as “binds”.

As to B24, the binding result is “binds”.

For the molecule B25, the binding result is “binds”.

For B26, the binding result is listed as “binds”.

As for B27, the binding result is reported as “binds”.

Regarding B28, the binding result was “no binding”.

For B29, the binding result is reported as “no binding”.

As to B30, the binding result was “binds”.

Consider B31, for which the binding result is recorded as “no binding”.

B32: the binding result was “binds”.

Turning to B33, the binding result was “no binding”.

The values are drawn from paper PMC5050560.
